Experimental data from paper PMC11393341, “The ASC inflammasome adapter governs SAA-derived protein aggregation in inflammatory amyloidosis” (EMBO Molecular Medicine, 2024).

Target: T1, Monomeric human ASC-His (recombinant full-length ASC) (human, UniProt Q9ULZ3 1-195)
T1 construct: ASC (apoptosis-associated speck-like protein containing a CARD), human, recombinant full-length, monomeric; The methods list ASC-His and ASC-GFP-His; also called apoptosis-associated speck-like protein containing a caspase recruitment domain; monomeric recombinant human ASC; source: E. coli BL21(DE3), purified from inclusion bodies (Nickel beads, size exclusion chromatography)
Test: limited proteolysis-coupled mass spectrometry (LiP-MS); purified monomeric recombinant ASC incubated with monomeric recombinant human SAA1, 15 min at 37 °C in LiP buffer (100 mM HEPES pH 7.4, 150 mM KCl, 1 mM MgCl2); proteinase K 1:100 (w/w) 5 min at 37 °C; ASC peptides compared with and without SAA1
Details: both partners purified

T1 sequence (Q9ULZ3 whole entry, the tested form may be a part): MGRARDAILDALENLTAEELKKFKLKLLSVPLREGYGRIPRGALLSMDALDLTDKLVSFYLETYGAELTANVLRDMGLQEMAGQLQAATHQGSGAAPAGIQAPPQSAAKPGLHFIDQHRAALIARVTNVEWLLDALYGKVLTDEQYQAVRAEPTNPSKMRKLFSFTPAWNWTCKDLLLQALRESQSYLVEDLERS

binding result: binds
B1: recombinant human SAA1 (natural protein, UniProt P0DJI8 19-122, looked up)
chain: RSFFSFLGEAFDGARDMWRAYSDMREANYIGSDKYFHARGNYDAAKRGPGGAWAAEVITDARENIQRFFGHGAEDSLADQAANEWGRSGKDPNHFRPAGLPEKY
notes: Serum amyloid A-1 (SAA1), human, recombinant; The assay format tells the two apart; How the fibrils were made is not described; also called serum amyloid A; monomeric recombinant human SAA1
